The record followed here is patent US20100143440A1, “UL97 INHIBITORS FOR TREATMENT OF PROLIFERATIVE DISORDERS” (The UAB Research Foundation, priority 2007, published 2010).

Where two headings read alike, the source gives them in different places.

For orientation: EC50 means the concentration at which the effect is half-maximal.

One series has as its system GS strain of HHV-6A. The series is described as follows: Efficacy against HHV-6A in HSB-2 cells with reduced serum. Type of series: cell-based. The note with it: for EC50: HSB2, HHV-6A in HSB-2 cells, read-out: EC50. On the procedure:
The activity of MBV was evaluated against the GS strain of HHV-6A in HSB-2 cells with reduced serum to slow the growth of lymphocytes.

The target of series [1] is RB tumor suppressor (retinoblastoma protein), endogenous in infected human foreskin fibroblast (HFF) cells (UniProt P06400).
Series [2] deals with T1, epitope tagged (V5) UL89 fusion protein (negative control) (UniProt P16732 1-674).
T1 construct: Negative control in the Rb pull-down; also called pUL89
T1 sequence: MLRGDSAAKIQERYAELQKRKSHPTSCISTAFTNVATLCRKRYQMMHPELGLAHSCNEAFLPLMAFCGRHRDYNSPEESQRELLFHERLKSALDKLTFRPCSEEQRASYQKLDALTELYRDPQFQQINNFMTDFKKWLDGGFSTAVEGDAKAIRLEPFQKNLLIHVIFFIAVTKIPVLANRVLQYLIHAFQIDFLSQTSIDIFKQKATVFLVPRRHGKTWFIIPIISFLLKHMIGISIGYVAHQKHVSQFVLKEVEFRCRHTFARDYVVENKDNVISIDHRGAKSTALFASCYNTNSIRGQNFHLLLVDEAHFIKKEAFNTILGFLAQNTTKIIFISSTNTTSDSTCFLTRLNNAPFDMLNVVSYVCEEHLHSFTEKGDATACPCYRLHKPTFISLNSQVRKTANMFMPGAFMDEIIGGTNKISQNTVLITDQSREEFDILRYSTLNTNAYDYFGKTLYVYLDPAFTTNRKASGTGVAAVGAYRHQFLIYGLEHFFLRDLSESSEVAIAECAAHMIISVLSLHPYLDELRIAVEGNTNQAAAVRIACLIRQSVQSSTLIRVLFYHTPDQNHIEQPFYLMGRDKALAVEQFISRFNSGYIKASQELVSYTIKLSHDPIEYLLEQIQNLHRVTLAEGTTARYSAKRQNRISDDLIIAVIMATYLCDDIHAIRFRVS
Description: pull-down of recombinant Rb by V5-immunoprecipitated protein on Protein A sepharose beads, immunoblot for Rb.

The target in series [3] is T2, epitope tagged (V5) UL104 fusion protein (negative control) (UniProt P16735 1-697).
T2 construct: Negative control in the Rb pull-down; also called pUL104
T2 sequence: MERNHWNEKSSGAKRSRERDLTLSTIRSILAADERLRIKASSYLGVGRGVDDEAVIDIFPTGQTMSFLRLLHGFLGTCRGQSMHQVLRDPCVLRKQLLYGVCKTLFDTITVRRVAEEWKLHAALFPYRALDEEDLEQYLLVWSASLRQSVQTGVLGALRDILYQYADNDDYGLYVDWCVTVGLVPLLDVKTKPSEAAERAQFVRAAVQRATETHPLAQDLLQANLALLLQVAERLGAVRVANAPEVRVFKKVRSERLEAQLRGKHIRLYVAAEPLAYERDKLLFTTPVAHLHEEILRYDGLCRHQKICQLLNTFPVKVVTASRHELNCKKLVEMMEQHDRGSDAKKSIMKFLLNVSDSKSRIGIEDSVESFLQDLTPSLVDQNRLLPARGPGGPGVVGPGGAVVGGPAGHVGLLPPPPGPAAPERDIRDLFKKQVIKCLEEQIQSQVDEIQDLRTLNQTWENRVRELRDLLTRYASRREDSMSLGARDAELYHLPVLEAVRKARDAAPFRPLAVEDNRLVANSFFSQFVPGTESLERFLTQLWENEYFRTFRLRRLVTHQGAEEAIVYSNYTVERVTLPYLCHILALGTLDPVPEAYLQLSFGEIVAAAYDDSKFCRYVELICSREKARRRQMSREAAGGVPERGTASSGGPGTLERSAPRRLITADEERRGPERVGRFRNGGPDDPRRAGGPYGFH
Described as above.

The target of series [4] is T3, RB tumor suppressor (retinoblastoma protein), endogenous in infected human foreskin fibroblast (HFF) cells, P06400.
T3 chain: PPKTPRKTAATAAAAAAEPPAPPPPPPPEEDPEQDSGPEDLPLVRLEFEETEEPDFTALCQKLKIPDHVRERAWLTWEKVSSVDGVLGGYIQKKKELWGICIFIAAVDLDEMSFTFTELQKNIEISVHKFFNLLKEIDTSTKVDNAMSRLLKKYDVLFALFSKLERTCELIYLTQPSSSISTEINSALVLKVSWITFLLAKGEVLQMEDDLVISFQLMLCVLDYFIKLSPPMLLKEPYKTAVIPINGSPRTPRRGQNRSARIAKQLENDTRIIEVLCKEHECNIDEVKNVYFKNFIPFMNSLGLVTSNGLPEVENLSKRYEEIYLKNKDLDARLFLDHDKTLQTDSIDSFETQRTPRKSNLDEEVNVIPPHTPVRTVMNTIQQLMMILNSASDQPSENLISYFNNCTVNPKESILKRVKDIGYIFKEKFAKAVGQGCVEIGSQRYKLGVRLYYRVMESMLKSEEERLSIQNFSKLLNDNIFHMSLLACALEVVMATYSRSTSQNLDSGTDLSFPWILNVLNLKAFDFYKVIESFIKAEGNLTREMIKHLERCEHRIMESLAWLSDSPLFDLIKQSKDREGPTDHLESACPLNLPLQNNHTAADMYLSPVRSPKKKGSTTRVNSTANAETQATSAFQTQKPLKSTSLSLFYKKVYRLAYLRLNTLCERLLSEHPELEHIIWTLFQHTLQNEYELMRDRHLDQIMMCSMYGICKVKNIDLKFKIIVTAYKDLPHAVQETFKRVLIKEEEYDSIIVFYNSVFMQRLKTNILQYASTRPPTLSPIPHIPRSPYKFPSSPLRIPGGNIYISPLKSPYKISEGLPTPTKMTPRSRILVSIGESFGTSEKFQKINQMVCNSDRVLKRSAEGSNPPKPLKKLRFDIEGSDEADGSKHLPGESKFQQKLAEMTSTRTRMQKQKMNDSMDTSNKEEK

Regarding `Nc1ccn(C[C@@H](CO)OCP(=O)(O)O)c(=O)n1` [cidofovir], the “EC50 values under conditions of reduced serum” value in the series with GS strain of HHV-6A (GS strain of HHV-6A, HSB-2 cells, reduced serum) is reported as “unaffected”. For the same molecule, the concentration giving a half-maximal response (EC50) in the series on GS strain of HHV-6A (2% FBS) came to 1.1 µM; in the series on GS strain of HHV-6A (5% FBS), 1.2 µM; in the series with GS strain of HHV-6A (10% FBS) it was 1.4 µM.
pUL97 K355M of recombinant virus RC314: in series [1], the “RB stabilization, western blot of lysates 24 hours after infection” value was “This did not occur when cells were infected with the K355M mutant”; the “phosphorylation of RB on serine 780, western blot with specific antisera” value is “The phosphorylation of serine 780 was reduced in the K355M and C151G mutants relative to the wild-type virus and resembled levels seen in uninfected cells”.

B1: recombinant protein consisting of the carboxyl terminus of Rb fused to the maltose binding protein (Cell Signaling Technology) (other)
chain: DQIMMCSMYGICKVKNIDLKFKIIVTAYKDLPHAVQETFKRVLIKEEEYDSIIVFYNSVFMQRLKTNILQYASTRPPTLSPIPHIPRSPYKFPSSPLRIPGGNIYISPLKSPYKISEGLPTPTKMTPRSRILVSIGESFGTSEKFQKINQMVCNSDRVLKRSAEGSNPPKPLKKLRFDIEGSDEADGSKHLPGESKFQQKLAEMTSTRTRMQKQKMNDSMDTSNKEEK
notes: domain: carboxyl terminus; Bought fusion protein; also called recombinant Rb; recombinant Rb protein
On to B1, for which the binding result in series [2] and in series [3] was “no binding” each time.

B2: pUL97 of the wild-type virus HB5 (HCMV BAC strain) (protein)
chain: MSSALRSRARSASLGTTTQGWDPPPLRRPSRARRRQWMREAAQAAAQAAVQAAQAAAAQVAQAHVDENEVVDLMADEAGGGVTTLTTLSSVSTTTVLGHATFSACVRSDVMRDGEKEDAASDKENLRRPVVPSTSSRGSAASGDGYHGLRCRETSAMWSFEYDRDGDVTSVRRALFTGGSDPSDSVSGVRGGRKRPLRPPLVSLARTPLCRRRVGGVDAVLEENDVELRAESQDSAVASGPGRIPQPLSGSSGEESATAVEADSTSHDDVHCTCSNDQIITTSIRGLTCDPRMFLRLTHPELCELSISYLLVYVPKEDDFCHKICYAVDMSDESYRLGQGSFGEVWPLDRYRVVKVARKHSETVLTVWMSGLIRTRAAGEQQQPPSLVGTGVHRGLLTATGCCLLHNVTVHRRFHTDMFHHDQWKLACIDSYRRAFCTLADAIKFLNHQCRVCHFDITPMNVLIDVNPHNPSEIVRAALCDYSLSEPYPDYNERCVAVFQETGTARRIPNCSHRLRECYHPAFRPMPLQKLLICDPHARFPVAGLRRYCMSELSALGNVLGFCLMRLLDRRGLDEVRMGTEALLFKHAGAACRALENGKLTHCSDACLLILAAQMSYGACLLGEHGAALVSHTLRFVEAKMSSCRVRAFRRFYHECSQTMLHEYVRKNVERLLATSDGLYLYNAFRRTTSIICEEDLDGDCRQLFPE
Turning to B2, the “RB stabilization, western blot of lysates 24 hours after infection” value in series [4] is reported as “Cells infected with the wild-type virus stabilized RB”.

B3: pUL97 C151G of recombinant virus RC295 (protein)
chain: MSSALRSRARSASLGTTTQGWDPPPLRRPSRARRRQWMREAAQAAAQAAVQAAQAAAAQVAQAHVDENEVVDLMADEAGGGVTTLTTLSSVSTTTVLGHATFSACVRSDVMRDGEKEDAASDKENLRRPVVPSTSSRGSAASGDGYHGLRGRETSAMWSFEYDRDGDVTSVRRALFTGGSDPSDSVSGVRGGRKRPLRPPLVSLARTPLCRRRVGGVDAVLEENDVELRAESQDSAVASGPGRIPQPLSGSSGEESATAVEADSTSHDDVHCTCSNDQIITTSIRGLTCDPRMFLRLTHPELCELSISYLLVYVPKEDDFCHKICYAVDMSDESYRLGQGSFGEVWPLDRYRVVKVARKHSETVLTVWMSGLIRTRAAGEQQQPPSLVGTGVHRGLLTATGCCLLHNVTVHRRFHTDMFHHDQWKLACIDSYRRAFCTLADAIKFLNHQCRVCHFDITPMNVLIDVNPHNPSEIVRAALCDYSLSEPYPDYNERCVAVFQETGTARRIPNCSHRLRECYHPAFRPMPLQKLLICDPHARFPVAGLRRYCMSELSALGNVLGFCLMRLLDRRGLDEVRMGTEALLFKHAGAACRALENGKLTHCSDACLLILAAQMSYGACLLGEHGAALVSHTLRFVEAKMSSCRVRAFRRFYHECSQTMLHEYVRKNVERLLATSDGLYLYNAFRRTTSIICEEDLDGDCRQLFPE
For B3, in series [4], the “RB accumulation, western blot of lysates 24 hours after infection” value was “The accumulation of RB was reduced in the C151G mutant”; the “phosphorylation of RB on serine 780, western blot with specific antisera” value is “The phosphorylation of serine 780 was reduced in the K355M and C151G mutants relative to the wild-type virus and resembled levels seen in uninfected cells”.
